Measured values reported in patent US20220002743.
Residue numbers refer to the chain shown, from its start. Names and notes keep the numbering of the source.

Target: myelin basic protein
Sequence (P02687 whole entry): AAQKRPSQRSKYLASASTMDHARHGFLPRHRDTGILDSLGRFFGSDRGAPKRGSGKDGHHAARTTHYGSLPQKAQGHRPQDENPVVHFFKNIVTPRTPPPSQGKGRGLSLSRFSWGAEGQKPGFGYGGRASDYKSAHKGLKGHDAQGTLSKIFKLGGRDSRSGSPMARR

B1: wild type protein kinase Nitab4.5_0003679 g0060.2 (SEQ ID No. 3) (protein)
chain: MAIEDNESCGSRVVDSATTSGRHQRKKLEVYNEVLRRLKESNNVEALEPGFDDELWAHFNRLPTRYAIDVNVERAEDVLTHKRLLHLAHVPANRPAFDVRLVQVASVPDGNLRDSFHSSFAKKEVSRSVHPPPAFGSSPNLEALACEAIKSEVQDEDTAAPCANFSRPMHEITFSTDDKPKLLSQLTSLLAELGLNIQEAHAFSTVDGYSLDVFVVDGWPYEEVVRLRTALEREILRNEKSWPSPSQSFIKQEQDLIKREFDHLTIPFDGIDVWEIDHQLLKFEYKIASGSYGDLYKGTYCSQDVAIKILKSERLNTELQTEFAQEVYIMRKVRHKNVVQFIGACTRPPNLCIVTEYMSGGSVYDYLHKRKGSFKLPTLLKVAIDVAKGMNYLHQNNIIHRDLKAANLLMDENEVIKVADFGVARVKAQTGVMTAETGTYRWMAPEVIEHKPYDHKADVFSFGVVLWELLTGKLPYEYLTPLQAAIGVVQKGLRPTIPKHTPPRLAELLETCWQQDPTSRPDFSEIVDILQQIAKEVGDERADRCKEKSAGGFFSALRRGHH
In the case of B1, the “in vitro kinase reaction; phosphorylation detected by Pro-Q Diamond phosphoprotein gel stain after SDS-PAGE” value is reported as “K308 (i.e. the wild type SEQ ID No. 3) is an active protein kinase”.

B2: K308M variant of protein kinase Nitab4.5_0003679 g0060.2 (SEQ ID No. 3) (protein)
chain: B1 chain with K308M
B2 was tested, and the “in vitro kinase reaction; phosphorylation detected by Pro-Q Diamond phosphoprotein gel stain after SDS-PAGE” value was “the variant K308M is not an active kinase”.
